US9395368B2, “Methods, agents and peptides for inducing an immune response to matrix metalloproteinase-2 expressing tumors” (New York University, priority 2010, dated 2016)

Columns and labels:
[1] = test system: Cord blood-derived CD4+/CD25- cells; test: Priming of naive CD4+ T cells to Melan-A/MART-1 or NY-ESO-1 with DCs pre-incubated with MMP-2; type: cell-based, human
Description: (A) Cord blood-derived CD4^+/CD25^− cells were stimulated with autologous poly(I:C)-matured DCs pulsed with overlapping peptides spanning either Melan-A/MART-1 or NY-ESO-1. Prior to poly(I:C) addition, DCs were incubated with or without MMP-2 (active or heat-inactivated) for 1 h. MMP-2 enzymatic activity was controlled (FIG. 13C-D). After 15 days, CD4^+ T cells were stimulated with the Melan-A/MART-1 or NY-ESO-1 peptide pools (2 μM) for 6 h before intracellular staining of cytokines. Percentages of antigen-specific CD4^+ T cells, secreting indicated cytokines, are represented for all donors. (B) Contour plots showing percentages of cytokine-producing CD4^+ T cells are shown for representative donor CB45 primed to Melan-A/MART-1. Percentage of secreting cells upon peptide stimulation was considered specific/positive when it exceeded by more than twofold the background (cytokine-secreting cells in the absence of stimulation) and had more than 0.5% of responding cells (after background subtraction) for at least one cytokine. For each cytokine, 2 paired t-tests were used to compare priming in the presence of active MMP-2 to either priming in the absence of active MMP-2 or with HI MMP-2. The Bonferroni adjustment was used for multiple comparisons. P values≦0.025 (*) were considered statistically significant using a Bonferroni correction for 2 comparisons.
T Cell culture, stimulation and priming. Peripheral blood mononuclear cells (PBMCs) were purified from healthy donor-(HD) or cord blood donor-(CB) derived buffy coats (New York Blood Center) by Ficoll-Paque Plus (GE Healthcare) centrifugation. CD4^+/CD25^− cells were enriched (>90%) by magnetic cell sorting (Miltenyi Biotec) and primed/stimulated for 12-15 days either with irradiated (35Gy) autologous CD4^− cells or with autologous mature DCs in IMDM (GIBCO) supplemented with 1 mM HEPES (Life Technologies), 2 mM L-glutamine (Sigma), streptomycin (100 UI/mL)/penicillin (100 μg/mL) (Sigma) and 5% heat inactivated pooled human serum (PHS; Valley Biomedical) in the presence of rhIL-2 (10 UI/mL) and IL7 (5 ng/mL) (R&D Systems). Antigen presenting cells (CD4^− cells or DCs) were loaded either with peptides (2 μM) or with the MMP-2 protein (10 μg/mL) for 2 and 5 h, respectively. DCs were matured using the TLR3 agonist poly(I:C) at 5 μg/mL/10^6 DCs (Amersham). To generate T cell clones, we originally relied on our published methodology (Godefroy et al., 2006; Godefroy et al., 2007; the entire contents of each of which is incorporated herein by reference), involving enrichment of IFNγ-secreting cells upon short-term culture and peptide stimulation to generate MMP-2 responsive clones. Briefly, CD4^+ T cells were stimulated by CD4^− cells irradiated and pulsed with peptides for 12 days in the presence of rhIL-2 and rhIL-7. CD4^+ T cells were then restimulated with peptides for 3 hours before capturing IFNγ-secreting specific cells using a bispecific antibody coating T cells and capturing produced IFNγ. Positive cells were purified magnetically before being cloned. Although MMP-2-specific cells could be isolated, it was realized that IFNγ secretion was marginal compared to their secretion of IL-4 and TNFα. IFNγ-secreting cells in response to MMP-2 peptide pool were enriched by cytokine-guided magnetic cell sorting (Miltenyi Biotec) as described above and cloned the following day by limiting dilution in the presence of irradiated allogeneic PBMCs, 1 μg/mL phytohemagglutinin-L (Sigma) and 150 UI/mL rhIL-2. Tumor infiltrating lymphocytes (TILs) were provided by Pr. F. Jotereau and B. Dréno. They were obtained from tumor-invaded lymph nodes of melanoma patients (stage Mb) and expanded ex vivo. These patients received autologous TILs and IL-2 infusions in a clinical trial (Labarriere et al., 2002). This protocol was approved by the Institutional Ethics Committee and registered with regulatory state authority in France (Nantes). […]

Recombinant IL-12p70 = test: Incubation of recombinant IL-12p70 with MMP-2, IL-12p70 content by CBA; type: biochemical, human; conditions: rhIL-12 incubated for 24 h in the presence or absence of MMP-2
[2] = DCs pre-incubated before poly(I:C) maturation

B1: active MMP-2: Purified human MMP-2 (mixture of the proenzyme (50%) and the active form (50%)) purchased from Biomol (protein, listed as Homo sapiens)
chain: MEALMARGALTGPLRALCLLGCLLSHAAAAPSPIIKFPGDVAPKTDKELAVQYLNTFYGCPKESCNLFVLKDTLKKMQKFFGLPQTGDLDQNTIETMRKPRCGNPDVANYNFFPRKPKWDKNQITYRIIGYTPDLDPETVDDAFARAFQVWSDVTPLRFSRIHDGEADIMINFGRWEHGDGYPFDGKDGLLAHAFAPGTGVGGDSHFDDDELWTLGEGQVVRVKYGNADGEYCKFPFLFNGKEYNSCTDTGRSDGFLWCSTTYNFEKDGKYGFCPHEALFTMGGNAEGQPCKFPFRFQGTSYDSCTTEGRTDGYRWCGTTEDYDRDKKYGFCPETAMSTVGGNSEGAPCVFPFTFLGNKYESCTSAGRSDGKMWCATTANYDDDRKWGFCPDQGYSLFLVAAHEFGHAMGLEHSQDPGALMAPIYTYTKNFRLSQDDIKGIQELYGASPDIDLGTGPTPTLGPVTPEICKQDIVFDGIAQIRGEIFFFKDRFIWRTVTPRDKPMGPLLVATFWPELPEKIDAVYEAPQEEKAVFFAGNEYWIYSASTLERGYPKPLTSLGLPPDVQRVDAAFNWSKNKKTYIFAGDKFWRYNEVKKKMDPGFPKLIADAWNAIPDNLDAVVDLQGGGHSYFFKGAYYLKLENQSLKSVKFGSIKSDWLGC
antigen-specific CD4+ T cells secreting IL-4, mean ([1]; 10 cord blood donors, 15 days): 2.50%
antigen-specific CD4+ T cells secreting IL-13, mean ([1]; 10 cord blood donors, 15 days): 0.08%
IL-4, mean of differences versus priming without MMP-2 [1, 2]: 1.85
IL-13, mean of differences versus priming without MMP-2 [1, 2]: 0.07
production of type-1 cytokines (IFNγ and IL-2) upon peptide re-stimulation ([1]; Melan-A/MART-1- and NY-ESO-1-specific primed CD4+ T cells): failed to produce
IL-12p70 levels after incubation of rhIL-12 with MMP-2 (Recombinant IL-12p70): remained the same
